Measurements reported in the supplement of paper PMC5998384.

Columns and labels:
HeLa Kyoto [1] = assay: solubility change mitosis vs G1/S (difference of NP-40 vs SDS log2 ratios) (log2 ratio difference); higher = more soluble in mitosis
HeLa Kyoto [2] = assay: solubility in G1/S (NP-40 vs SDS abundance) (log2 ratio); higher = more soluble; details: cell cycle stage: G1/S
HeLa Kyoto [3] = assay: thermal stability score vs G1/S (z-score of summed log2 fold changes over temperatures); higher = more thermally stable than in G1/S
[4] = cell cycle stage: early G1 (4.5 h after nocodazole release)
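For solubility change mitosis vs G1/S (difference of NP-40 vs SDS log2 ratios) in this document: synchronized HeLa Kyoto cells (double thymidine block for G1/S, nocodazole release for mitosis), protein amounts in NP-40 versus SDS lysates quantified by mass spectrometry, three biological replicates.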
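For solubility in G1/S (NP-40 vs SDS abundance) in this document: HeLa Kyoto cells arrested at G1/S by double thymidine block, proteins quantified by TMT10plex mass spectrometry in mild NP-40 versus SDS extracts, three biological replicates.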
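For thermal stability score vs G1/S (z-score of summed log2 fold changes over temperatures) in this document: synchronized HeLa Kyoto cells, proteins quantified by TMT10plex mass spectrometry, three biological replicates, mitosis taken 0.5 h after nocodazole release, G1/S directly after double thymidine block.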

Row | Sequence | solubility change mitosis (log2) (HeLa Kyoto [1]) | solubility in G1/S (log2) (HeLa Kyoto [2]) | thermal stability score (HeLa Kyoto [3]; [4]) | thermal stability score (HeLa Kyoto [3]; cell cycle stage: mitosis)
1 | MGDMKTPDFDDLLAAFDIPDPTSLDAKEAIQTPSEENESPLKPPGICMDESVSLSHSGSAPDVPAVSVIVKNTSRQESFEAEKDHITPSLLHNGFRGSDLPPDPHNCGKFDSTFMNGDSARSFPGKLEPPKSEPLPTFNQFSPISSPEPEDPIKDNGFGIKPKHSDSYFPPPLGCGAVGGPVLEALAKFPVPELHMFDHFCKKEPKPEPLPLGSQQEHEQSGQNTVEPHKDPDATRFFGEALEFNSHPSNSIGESKGLARELGTCSSVPPRQRLKPAHSKLSSCVAALVALQAKRVASVTKEDQPGHTKDLSGPTKESSKGSPKMPKSPKSPRSPLEATRKSIKPSDSPRSICSDSSSKGSPSVAASSPPAIPKVRIKTIKTSSGEIKRTVTRILPDPDDPSKSPVGSPLGSAIAEAPSEMPGDEVPVEEHFPEAGTNSGSPQGARKGDESMTKASDSSSPSCSSGPRVPKGAAPGSQTGKKQQSTALQASTLAPANLLPKAVHLANLNLVPHSVAASVTAKSSVQRRSQPQLTQMSVPLVHQVKKAAPLIVEVFNKVLHSSNPVPLYAPNLSPPADSRIHVPASGYCCLECGDAFALEKSLSQHYGRRSVHIEVLCTLCSKTLLFFNKCSLLRHARDHKSKGLVMQCSQLLVKPISADQMFVSAPVNSTAPAAPAPSSSPKHGLTSGSASPPPPALPLYPDPVRLIRYSIKCLECHKQMRDYMVLAAHFQRTTEETEGLTCQVCQMLLPNQCSFCAHQRIHAHKSPYCCPECGVLCRSAYFQTHVKENCLHYARKVGYRCIHCGVVHLTLALLKSHIQERHCQVFHKCAFCPMAFKTASSTADHSATQHPTQPHRPSQLIYKCSCEMVFNKKRHIQQHFYQNVSKTQVGVFKCPECPLLFVQKPELMQHVKSTHGVPRNVDELSSLQSSADTSSSRPGSRVPTEPPATSVAARSSSLPSGRWGRPEAHRRVEARPRLRNTGWTCQECQEWVPDRESYVSHMKKSHGRTLKRYPCRQCEQSFHTPNSLRKHIRNNHDTVKKFYTCGYCTEDSPSFPRPSLLESHISLMHGIRNPDLSQTSKVKPPGGHSPQVNHLKRPVSGVGDAPGTSNGATVSSTKRHKSLFQCAKCSFATDSGLEFQSHIPQHQVDSSTAQCLLCGLCYTSASSLSRHLFIVHKVRDQEEEEEEEAAAAEMAVEVAEPEEGSGEEVPMETRENGLEECAGEPLSADPEARRLLGPAPEDDGGHNDHSQPQASQDQDSHTLSPQV [ZNF592] | 0.109 | -0.283 | -0.704 | -1.78
2 | MGKMAAAVGSVATLATEPGEDAFRKLFRFYRQSRPGTADLEGVIDFSAAHAARGKGPGAQKVIKSQLNVSSVSEQNAYRAGLQPVSKWQAYGLKGYPGFIFIPNPFLPGYQWHWVKQCLKLYSQKPNVCNLDKHMSKEETQDLWEQSKEFLRYKEATKRRPRSLLEKLRWVTVGYHYNWDSKKYSADHYTPFPSDLGFLSEQVAAACGFEDFRAEAGILNYYRLDSTLGIHVDRSELDHSKPLLSFSFGQSAIFLLGGLQRDEAPTAMFMHSGDIMIMSGFSRLLNHAVPRVLPNPEGEGLPHCLEAPLPAVLPRDSMVEPCSMEDWQVCASYLKTARVNMTVRQVLATDQNFPLEPIEDEKRDISTEGFCHLDDQNSEVKRARINPDS [ALKBH1] | -0.0399 | 0.0175 | -0.273 | 0.558
3 | MGLSAAAPLWGPPGLLLAIALHPALSVPPRRDYCVLGAGPAGLQMAYFLQRAGRDYAVFERAPRPGSFFTRYPRHRKLISINKRYTGKANAEFNLRHDWNSLLSHDPRLLFRHYSRAYFPDARDMVRYLGDFADTLGLRVQYNTTIAHVTLDKDRQAWNGHYFILTDQKGQVHQCSVLFVATGLSVPNQVDFPGSEYAEGYESVSVDPEDFVGQNVLILGRGNSAFETAENILGVTNFIHMLSRSRVRLSWATHYVGDLRAINNGLLDTYQLKSLDGLLESDLTDLAILKDSKGKFHVTPKFFLEEANTNQSADSITLPQDDNDNFAMRVPYDRVIRCLGWNFDFSIFNKSLRLNSGNAFGKKYPLIRASYESKGSRGLFILGTASHSVDYRKSAGGFIHGFRYTVRAVHRLLEHRHHSVTWPATELPITQLTSSIVRRVNEASGLYQMFGVLADVILLKENSTAFEYLEEFPIQMLAQLETLTGRKAKHGLFVINMEYGRNFSGPDKDVFFDDRSVGHTEDAWQSNFLHPVIYYYRYLPTEQEVRFRPAHWPLPRPTAIHHIVEDFLTDWTAPIGHILPLRRFLENCLDTDLRSFYAESCFLFALTRQKLPPFCQQGYLRMQGLVSTESLWQHRVESRLLRDYAPTGRRLEDSSQQLGDQEPLGSPLAPGPLAQSVDSNKEEL [FOXRED2] | 0.00992 | -0.0337 | 0.289 | 1.28
4 | MGSENSALKSYTLREPPFTLPSGLAVYPAVLQDGKFASVFVYKRENEDKVNKAAKHLKTLRHPCLLRFLSCTVEADGIHLVTERVQPLEVALETLSSAEVCAGIYDILLALIFLHDRGHLTHNNVCLSSVFVSEDGHWKLGGMETVCKVSQATPEFLRSIQSIRDPASIPPEEMSPEFTTLPECHGHARDAFSFGTLVESLLTILNEQVSADVLSSFQQTLHSTLLNPIPKCRPALCTLLSHDFFRNDFLEVVNFLKSLTLKSEEEKTEFFKFLLDRVSCLSEELIASRLVPLLLNQLVFAEPVAVKSFLPYLLGPKKDHAQGETPCLLSPALFQSRVIPVLLQLFEVHEEHVRMVLLSHIEAYVEHFTQEQLKKVILPQVLLGLRDTSDSIVAITLHSLAVLVSLLGPEVVVGGERTKIFKRTAPSFTKNTDLSLEDSPMCVVCSHHSQISPILENPFSSIFPKCFFSGSTPINSKKHIQRDYYNTLLQTGDPFSQPIKFPINGLSDVKNTSEDSENFPSSSKKSEEWPDWSEPEEPENQTVNIQIWPREPCDDVKSQCTTLDVEESSWDDCEPSSLDTKVNPGGGITATKPVTSGEQKPIPALLSLTEESMPWKSSLPQKISLVQRGDDADQIEPPKVSSQERPLKVPSELGLGEEFTIQVKKKPVKDPEMDWFADMIPEIKPSAAFLILPELRTEMVPKKDDVSPVMQFSSKFAAAEITEGEAEGWEEEGELNWEDNNW [SCYL3] | -0.0596 | -0.0689 | 0.969 | 0.364
5 | MKCEHCTRKECSKKTKTDDQENVSADAPSPAQENGEKGEFHKLADAKIFLSDCLACDSCMTAEEGVQLSQQNAKDFFRVLNLNKKCDTSKHKVLVVSVCPQSLPYFAAKFNLSVTDASRRLCGFLKSLGVHYVFDTTIAADFSILESQKEFVRRYRQHSEEERTLPMLTSACPGWVRYAERVLGRPITAHLCTAKSPQQVMGSLVKDYFARQQNLSPEKIFHVIVAPCYDKKLEALQESLPPALHGSRGADCVLTSGEIAQIMEQGDLSVRDAAVDTLFGDLKEDKVTRHDGASSDGHLAHIFRHAAKELFNEDVEEVTYRALRNKDFQEVTLEKNGEVVLRFAAAYGFRNIQNMILKLKKGKFPFHFVEVLACAGGCLNGRGQAQTPDGHADKALLRQMEGIYADIPVRRPESSAHVQELYQEWLEGINSPKAREVLHTTYQSQERGTHSLDIKW [NARF] | -0.273 | 0.474 | -0.279 | -0.0946
6 | MKEGRGSFSVERGPRKERETAQSGMWKGNSPAGSQGAAMEGTGGELGGQGNWGPEDAPGLLARASLIMLPWPLPLASSALTLLFGALTSLFLWYCYRLGSQDMQALGAGSRAGGVRGGPVGCSEAGGPSPGGPGDPGEGPRTEGLVSRRLRAYARRYSWAGMGRVRRAAQGGPGPGRGPGVLGIQRPGLLFLPDLPSAPFVPRDAQRHDVELLESSFPAILRDFGAVSWDFSGTTPPPRGWSPPLAPGCYQLLLYQAGRCQPSNCRRCPGAYRALRGLRSFMSANTFGNAGFSVLLPGARLEGRCGPTNARVRCHLGLKIPPGCELVVGGEPQCWAEGHCLLVDDSFLHTVAHNGSPEDGPRVVFIVDLWHPNVAGAERQALDFVFAPDP [ASPHD1] | -0.229 | 0.213 | 1.03 | 1.87
7 | MKHINLSFAACGFLGIYHLGAASALCRHGKKLVKDVKAFAGASAGSLVASVLLTAPEKIEECNQFTYKFAEEIRRQSFGAVTPGYDFMARLRSGMESILPPSAHELAQNRLHVSITNAKTRENHLVSTFSSREDLIKVLLASSFVPIYAGLKLVEYKGQKWVDGGLTNALPILPVGRTVTISPFSGRLDISPQDKGQLDLYVNIAKQDIMLSLANLVRLNQALFPPSKRKMESLYQCGFDDTVKFLLKENWFE [PNPLA4] | -0.145 | 0.107 | 0.304 | 1.11
8 | MLLAQINRDSQGMTEFPGGGMEAQHVTLCLTEAVTVADGDNLENMEGVSLQAVTLADGSTAYIQHNSKDAKLIDGQVIQLEDGSAAYVQHVPIPKSTGDSLRLEDGQAVQLEDGTTAFIHHTSKDSYDQSALQAVQLEDGTTAYIHHAVQVPQSDTILAIQADGTVAGLHTGDATIDPDTISALEQYAAKVSIDGSESVAGTGMIGENEQEKKMQIVLQGHATRVTAKSQQSGEKAFRCEYDGCGKLYTTAHHLKVHERSHTGDRPYQCEHAGCGKAFATGYGLKSHVRTHTGEKPYRCSEDNCTKSFKTSGDLQKHIRTHTGERPFKCPFEGCGRSFTTSNIRKVHVRTHTGERPYYCTEPGCGRAFASATNYKNHVRIHTGEKPYVCTVPGCDKRFTEYSSLYKHHVVHTHSKPYNCNHCGKTYKQISTLAMHKRTAHNDTEPIEEEQEAFFEPPPGQGEDVLKGSQITYVTGVEGDDVVSTQVATVTQSGLSQQVTLISQDGTQHVNISQADMQAIGNTITMVTQDGTPITVPAHDAVISSAGTHSVAMVTAEGTEGEQVAIVAQDLAAFHTASSEMGHQQHSHHLVTTETRPLTLVATSNGTQIAVQLGEQPSLEEAIRIASRIQQGETPGLDD [ZNF143] | 0.313 | -0.143 | 0.385 | 0.819
9 | MLLWPLRGWAARALRCFGPGSRGSPASGPGPRRVQRRAWPPDKEQEKEKKSVICVEGNIASGKTTCLEFFSNATDVEVLTEPVSKWRNVRGHNPLGLMYHDASRWGLTLQTYVQLTMLDRHTRPQVSSVRLMERSIHSARYIFVENLYRSGKMPEVDYVVLSEWFDWILRNMDVSVDLIVYLRTNPETCYQRLKKRCREEEKVIPLEYLEAIHHLHEEWLIKGSLFPMAAPVLVIEADHHMERMLELFEQNRDRILTPENRKHCP [TK2] | 0.0925 | -0.273 | -2.93 | -2.11
10 | MLRGPWRQLWLFFLLLLPGAPEPRGASRPWEGTDEPGSAWAWPGFQRLQEQLRAAGALSKRYWTLFSCQVWPDDCDEDEEAATGPLGWRLPLLGQRYLDLLTTWYCSFKDCCPRGDCRISNNFTGLEWDLNVRLHGQHLVQQLVLRTVRGYLETPQPEKALALSFHGWSGTGKNFVARMLVENLYRDGLMSDCVRMFIATFHFPHPKYVDLYKEQLMSQIRETQQLCHQTLFIFDEAEKLHPGLLEVLGPHLERRAPEGHRAESPWTIFLFLSNLRGDIINEVVLKLLKAGWSREEITMEHLEPHLQAEIVETIDNGFGHSRLVKENLIDYFIPFLPLEYRHVRLCARDAFLSQELLYKEETLDEIAQMMVYVPKEEQLFSSQGCKSISQRINYFLS [TOR3A] | -0.118 | 0.0484 | 2.36 | 1.03
11 | MNPTETKAIPVSQQMEGPHLPNKKKHKKQAVKTEPEKKSQSTKLSVVHEKKSQEGKPKEHTEPKSLPKQASDTGSNDAHNKKAVSRSAEQQPSEKSTEPKTKPQDMISAGGESVAGITAISGKPGDKKKEKKSLTPAVPVESKPDKPSGKSGMDAALDDLIDTLGGPEETEEENTTYTGPEVSDPMSSTYIEELGKREVTIPPKYRELLAKKEGITGPPADSSKPIGPDDAIDALSSDFTCGSPTAAGKKTEKEESTEVLKAQSAGTVRSAAPPQEKKRKVEKDTMSDQALEALSASLGTRQAEPELDLRSIKEVDEAKAKEEKLEKCGEDDETIPSEYRLKPATDKDGKPLLPEPEEKPKPRSESELIDELSEDFDRSECKEKPSKPTEKTEESKAAAPAPVSEAVCRTSMCSIQSAPPEPATLKGTVPDDAVEALADSLGKKEADPEDGKPVMDKVKEKAKEEDREKLGEKEETIPPDYRLEEVKDKDGKPLLPKESKEQLPPMSEDFLLDALSEDFSGPQNASSLKFEDAKLAAAISEVVSQTPASTTQAGAPPRDTSQSDKDLDDALDKLSDSLGQRQPDPDENKPMEDKVKEKAKAEHRDKLGERDDTIPPEYRHLLDDNGQDKPVKPPTKKSEDSKKPADDQDPIDALSGDLDSCPSTTETSQNTAKDKCKKAASSSKAPKNGGKAKDSAKTTEETSKPKDD [CAST] | 0.0186 | 0.36 | -1.5 | -2.61
